Test results published in patent US20240109967A1 (University of Pennsylvania, published 2024).
Where two headings read alike, the source gives them in different places.

What was measured:
[1] = biological target: T1, human complement C1q (in normal human complement serum) (human, UniProt P02745 23-245; P02746 28-253; P02747 29-245); assay: complement fixation ELISA: antibody titrated on captured cCTLA-4, C1q of human serum detected
T1 construct: also called human serum complement

[2] = biological target: T2, recombinant canine CTLA-4 extracellular domain protein (canine, UniProt Q9XSI1 36-161, biotin on the Avi tag (BirA ligase) in the ELISA, panning and interaction assays); assay: SPR, full-length canine mAb and cCTLA-4
T2 construct: Cloned into pFUSE containing an HA tag, made in 293T cells; The SPR analyte is called soluble cCTLA-4 ECD, and biotinylation is not mentioned there; also called cCTLA-4; cCTLA-4 ECD
T2 chain: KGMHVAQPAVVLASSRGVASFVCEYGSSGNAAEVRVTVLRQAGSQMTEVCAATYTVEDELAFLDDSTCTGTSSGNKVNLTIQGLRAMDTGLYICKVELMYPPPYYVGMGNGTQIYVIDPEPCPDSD

[3] = biological target: T2, recombinant canine CTLA-4 extracellular …; assay: SPR, mAb captured on the chip, cCTLA-4 ECD as analyte
[4] = biological target: T2, recombinant canine CTLA-4 extracellular …; assay: ELISA; the axis is the amount of CTLA4 per well, not the mAb concentration
[5] = biological target: T2, recombinant canine CTLA-4 extracellular …; assay: ELISA; the axis is the amount of coated CTLA4, not the mAb concentration
[6] = biological target: T2, recombinant canine CTLA-4 extracellular …; assay: scFv expression extract ELISA on cCTLA-4 (data not shown)
[7] = biological target: T2, recombinant canine CTLA-4 extracellular …; assay: ELISA; the axis is the amount of coated cCTLA-4, scFv fixed at 0.25 ug/ml
[8] = biological target: T2, recombinant canine CTLA-4 extracellular …; assay: SPR, mAb captured on the chip, cCTLA-4 ECD as analyte

T1 sequence (P02745 23-245 limits assumed, chain 1 of 3): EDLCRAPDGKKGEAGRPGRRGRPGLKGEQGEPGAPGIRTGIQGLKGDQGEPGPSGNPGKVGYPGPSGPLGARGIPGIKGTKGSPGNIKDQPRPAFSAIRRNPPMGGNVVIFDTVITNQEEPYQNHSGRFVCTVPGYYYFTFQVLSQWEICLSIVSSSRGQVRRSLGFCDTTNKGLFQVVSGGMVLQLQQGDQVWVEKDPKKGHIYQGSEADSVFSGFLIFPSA
T1 sequence (P02746 28-253 limits assumed, chain 2 of 3): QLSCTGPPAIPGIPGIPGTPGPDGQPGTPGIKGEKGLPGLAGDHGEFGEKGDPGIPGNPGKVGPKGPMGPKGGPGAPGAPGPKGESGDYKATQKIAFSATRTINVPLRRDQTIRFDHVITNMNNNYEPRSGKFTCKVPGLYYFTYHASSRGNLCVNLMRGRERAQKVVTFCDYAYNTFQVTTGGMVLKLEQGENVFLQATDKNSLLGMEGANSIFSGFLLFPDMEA
T1 sequence (P02747 29-245 limits assumed, chain 3 of 3): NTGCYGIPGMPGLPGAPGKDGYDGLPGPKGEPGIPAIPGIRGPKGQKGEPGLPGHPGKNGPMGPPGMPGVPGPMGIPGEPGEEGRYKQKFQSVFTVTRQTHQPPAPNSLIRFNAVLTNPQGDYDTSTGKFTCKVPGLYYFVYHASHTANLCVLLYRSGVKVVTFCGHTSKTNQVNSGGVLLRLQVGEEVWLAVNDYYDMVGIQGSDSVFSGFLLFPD

B1: A1mut2 full-length canine IgG3 (IgGC) mAb, HA-tagged (antibody)
heavy: EVQLVETGGDLVKPGGSLRLSCVASGFSFSSYAMNWVRQAPEKGLQLVGGINSGGSSTYYTDAVKGRFTISRDNAKNTVYLQMNSLRAEDTAVYYCAISNWAYWGQGTLVTVSSASTTAPSVFPLAPSCGSQSGSTVALACLVSGYIPEPVTVSWNSGSLTSGVHTFPSILQSSGLYSLSSMVTVPSSRWPSETFTCNVAHPATNTKVDKPVVKECECKCNCNNCPCPGCGLLGGPSVFIFPPKPKDILVTARTPTVTCVVVDLDPENPEVQISWFVDSKQVQTANTQPREEQSNGTYRVVSVLPIGHQDWLSGKQFKCKVNNKALPSPIEEIISKTPGQAHQPNVYVLPPSRDEMSKNTVTLTCLVKDFFPPEIDVEWQSNGQQEPESKYRMTPPQLDEDGSYFLYSKLSVDKSRWQRGDTFICAVMHEALHNHYTQKSLSHSPGKGGGSGGGSYPYDVPDYA
light: QAVLNQPASVSGSLGQRVTISCTGSSSDIGKSYVAWYQQLPGTGPRTLINVDGNRASGVPDRFSVSRSGNTATLTISGLQAEDEADYHCSSWDWSLHTYVFGSGTQLTILGQPKASPSVTLFPPSSEELGANKATLVCLISDFYPSGVTVAWKADGSPITQGVETTKPSKQSNNKYAASSYLSLTPDKWKSHSSFSCLVTHEGSTVEKKVAPAECS
notes: also called A1mut2 IgGC
EC50 (read off the curve) [1]: ~0.5 ug/ml antibody

B2: A1mut2 full-length canine IgG2 (IgGB) mAb, HA-tagged (antibody)
heavy: EVQLVETGGDLVKPGGSLRLSCVASGFSFSSYAMNWVRQAPEKGLQLVGGINSGGSSTYYTDAVKGRFTISRDNAKNTVYLQMNSLRAEDTAVYYCAISNWAYWGQGTLVTVSSASTTAPSVFPLAPSCGSTSGSTVALACLVSGYFPEPVTVSWNSGSLTSGVHTFPSVLQSSGLYSLSSMVTVPSSRWPSETFTCNVAHPASKTKVDKPVPKRENGRVPRPPDCPKCPAPEMLGGPSVFIFPPKPKDTLLIARTPEVTCVVVDLDPEDPEVQISWFVDGKQMQTAKTQPREEQFNGTYRVVSVLPIGHQDWLKGKQFTCKVNNKALPSPIERTISKARGQAHQPSVYVLPPSREELSKNTVSLTCLIKDFFPPDIDVEWQSNGQQEPESKYRTTPPQLDEDGSYFLYSKLSVDKSRWQRGDTFICAVMHEALHNHYTQESLSHSPGKGGGSGGGSYPYDVPDYA
light: QAVLNQPASVSGSLGQRVTISCTGSSSDIGKSYVAWYQQLPGTGPRTLINVDGNRASGVPDRFSVSRSGNTATLTISGLQAEDEADYHCSSWDWSLHTYVFGSGTQLTILGQPKASPSVTLFPPSSEELGANKATLVCLISDFYPSGVTVAWKADGSPITQGVETTKPSKQSNNKYAASSYLSLTPDKWKSHSSFSCLVTHEGSTVEKKVAPAECS
notes: also called A1mut2 IgGB
EC50 (read off the curve) [1]: ~0.6 ug/ml antibody

B3: B10 full-length canine IgG1 (IgGA) mAb (antibody)
heavy: EVQLVETGGDLVKPGGSLRLSCVASGFTFSDYPMNWVRQAPEKGLQLVGGINSGGSATYYTDAVKGRFTISRDNAKNTVYLQMNSLRAEDTAMYYCATSNFQYWGQGTLVTVSSASTTAPSVFPLAPSCGSTSGSTVALACLVSGYFPEPVTVSWNSGSLTSGVHTFPSVLQSSGLYSLSSMVTVPSSRWPSETFTCNVVHPASNTKVDKPVFNECRCTDTPPCPVPEPLGGPSVLIFPPKPKDILRITRTPEVTCVVLDLGREDPEVQISWFVDGKEVHTAKTQSREQQFNGTYRVVSVLPIEHQDWLTGKEFKCRVNHIDLPSPIERTISKARGRAHKPSVYVLPPSPKELSSSDTVSVTCLIKDFYPPDIDVEWQSNGQQEPERKHRMTPPQLDEDGSYFLYSKLSVDKSRWQQGDPFTCAVMHETLQNHYTDLSLSHSPGKGGGSGGGSYPYDVPDYA
light: QAVLNQPASVSAALGQRVTISCNTNIGSPYDVQWYQQLPGKSPKTIIYGNSNRPSGVPVRFSGSKSGSTATLTIAGIQAEDEADYYCQSYDDNVDGYVFGSGTQLTVLGQPKASPSVTLFPPSSEELGANKATLVCLISDFYPSGVTVAWKADGSPITQGVETTKPSKQSNNKYAASSYLSLTPDKWKSHSSFSCLVTHEGSTVEKKVAPAECS
notes: The HA tag is placed on the heavy chain; also called B10 mAb; B10 antibody
Kd [2]: 1.5 nM | kon [2]: 160000 M⁻¹ s⁻¹ | t1/2 [2]: 46 min | Kd [3]: 1.5 nM | koff [3]: 0.00025 s⁻¹ | kon [3]: 160000 M⁻¹ s⁻¹ | t1/2 [3]: 46 min | EC50 (read off the curve) [4]: ~0.9 pmol/well CTLA4 | EC50 (read off the curve) [5]: ~0.2 pmol biotinylated CTLA4/well

B4: D5 scFv (soluble, His and HA tagged) (scFv)
scFv: QPVLTQPPSVSAALGQRVTISCTGTATNVGGGYDVQWYQQFPGRPPKTIIYGNYNRPSGVPDRFSASTSGTTATLTISGLQAEDEANYYCSSWDNSLTAYVFGSGTQLTILGGGSSRSSSSGGGGSGGGGEVQLVETGGDLMKPGGSLRLSCVASGFTFSSYSMSWVRQAPEKGLQLVAGINSGGSSTYYTDAVKGRFTISRDNAKNTLYLQMNSLRDEDTAVYYCVISNWSYWGQGTLVTVSSESPSPPNLTSGQAGQHHHHHHGAYPYDVPDYAS
notes: Canine scFv from panning round 4; also called clone D5
fold increase in binding over background [6]: > 20 fold | EC50 (read off the curve) [7]: ~0.4 pmol biotinylated cCTLA4

B5: D5 full-length canine IgG1 (IgGA) mAb (antibody)
heavy: EVQLVETGGDLMKPGGSLRLSCVASGFTFSSYSMSWVRQAPEKGLQLVAGINSGGSSTYYTDAVKGRFTISRDNAKNTLYLQMNSLRDEDTAVYYCVISNWSYWGQGTLVTVSSASTTAPSVFPLAPSCGSTSGSTVALACLVSGYFPEPVTVSWNSGSLTSGVHTFPSVLQSSGLYSLSSMVTVPSSRWPSETFTCNVVHPASNTKVDKPVFNECRCTDTPPCPVPEPLGGPSVLIFPPKPKDILRITRTPEVTCVVLDLGREDPEVQISWFVDGKEVHTAKTQSREQQFNGTYRVVSVLPIEHQDWLTGKEFKCRVNHIDLPSPIERTISKARGRAHKPSVYVLPPSPKELSSSDTVSVTCLIKDFYPPDIDVEWQSNGQQEPERKHRMTPPQLDEDGSYFLYSKLSVDKSRWQQGDPFTCAVMHETLQNHYTDLSLSHSPGKGGGSGGGSYPYDVPDYA
light: QPVLTQPPSVSAALGQRVTISCTGTATNVGGGYDVQWYQQFPGRPPKTIIYGNYNRPSGVPDRFSASTSGTTATLTISGLQAEDEANYYCSSWDNSLTAYVFGSGTQLTILGQPKASPSVTLFPPSSEELGANKATLVCLISDFYPSGVTVAWKADGSPITQGVETTKPSKQSNNKYAASSYLSLTPDKWKSHSSFSCLVTHEGSTVEKKVAPAECS
notes: The HA tag is placed on the heavy chain; also called D5 mAb; D5 antibody
Kd [2]: 1.5 nM | kon [2]: 120000 M⁻¹ s⁻¹ | t1/2 [2]: 64 min | Kd [8]: 1.5 nM | koff [8]: 0.00018 s⁻¹ | kon [8]: 120000 M⁻¹ s⁻¹ | t1/2 [8]: 64 min | EC50 (read off the curve) [4]: ~0.7 pmol/well CTLA4 | EC50 (read off the curve) [5]: ~0.2 pmol biotinylated CTLA4/well

B6: B10 scFv (soluble, His and HA tagged) (scFv)
scFv: QAVLNQPASVSAALGQRVTISCNTNIGSPYDVQWYQQLPGKSPKTIIYGNSNRPSGVPVRFSGSKSGSTATLTIAGIQAEDEADYYCQSYDDNVDGYVFGSGTQLTVLGGGSSRSSSSGGGGSGGGGEVQLVETGGDLVKPGGSLRLSCVASGFTFSDYPMNWVRQAPEKGLQLVGGINSGGSATYYTDAVKGRFTISRDNAKNTVYLQMNSLRAEDTAMYYCATSNFQYWGQGTLVTVSSESPSPPNLTSGQAGQHHHHHHGAYPYDVPDYAS
notes: Canine scFv from panning round 3; also called clone B10
fold increase in binding over background [6]: > 20 fold | EC50 (read off the curve) [7]: ~0.6 pmol biotinylated cCTLA4

B7: clone A1 full-length canine IgG1 (IgGA) mAb (antibody, V domains shown)
VH: EVQLVESGGDLVKPAGSLRLSCVASGFSFSSYAMNWVRQAPGKGLQWIAGINSGGSSTSHIDAIKGRFTISRDNAKNTLYLQMNSLRAEDTAVYYCAISNWAYWGQGTLVTVSS
VL: QAVLNQPASVSGSLGQRVTISCTGSSSDIGKSYVAWYQQLPGTGPRTLINVDGNRASGVPDRFSVSRSGNTATLTISGLQAEDEADYHCSSWDWSLHTYVFGSGTQLTILG
notes: Produced only at low levels; also called A1 mAb
EC50 (read off the curve) [4]: ~0.7 pmol/well CTLA4

B8: A1 scFv (soluble, His and HA tagged) (scFv)
scFv: QAVLNQPASVSGSLGQRVTISCTGSSSDIGKSYVAWYQQLPGTGPRTLINVDGNRASGVPDRFSVSRSGNTATLTISGLQAEDEADYHCSSWDWSLHTYVFGSGTQLTILGGGSSRSSSSGGGGSGGGGEVQLVESGGDLVKPAGSLRLSCVASGFSFSSYAMNWVRQAPGKGLQWIAGINSGGSSTSHIDAIKGRFTISRDNAKNTLYLQMNSLRAEDTAVYYCAISNWAYWGQGTLVTVSSESPSPPNLTSGQAGQHHHHHHGAYPYDVPDYAS
notes: Canine scFv from panning round 3; also called clone A1
fold increase in binding over background [6]: > 20 fold | EC50 (read off the curve) [7]: ~0.3 pmol biotinylated cCTLA4
